In the domain aggregation screens of Martell et al. (2025):

Test: soluble fraction after stress (log2 fold change); higher = more stays soluble; pooled small domains, quantitative proteomics
Conditions: stress: 75 degC
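Further: 20 min heating vs room temperature control held 20 min.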

Sequence	soluble fraction (log2)
HMKSKHENLIDGLLKMISSMKPHDRLTPERQLAEEWAVSRMTLRRALEVLQFQGKIYTVPSSGLFVAEPK	-2.89
HMKSKPRVPFGSLVEMGILKPGSILFDPKGKIKTKVMVDGSIKYKETEGSIHKVAAQIMGTESYNGWTYW	0.488
HMKSLDDVISKFRPTGSENKIDFRKRVISEIHAQGFFKIKGSVNHVAKALGVTRYTVYNYLDKLND	-3.65
HMKSLLTHAEEFVRNNNGRWMLAETSSKESYSSKQNFYLRNNYSIISEIRDFYSVGDNLLVFGKFFT	0.201
HMKSNESAELGERMLNKALLALHTDSSKISDTQWQKLLRDYGAKNKQEILTDIGLGKRLNVMVAHQLMAMG	-0.271
HMKSNIGENIRQLREKREMSVERVARMLEVKPATVIGWESGRELPEPAELGLLAKLFDVTVEELN	-0.121
HMKSNKEKIYDFIQMHDTAEKEGGVSTTYIAQALSLQRTNVSSLLNALVEEGRIHKSNGRPVLYSIAG	-0.242
HMKSPAQAAALKKLWAAIKQNEQGEVVEVLFHNRKLTDAGLVHLKGLANLQTLNLYDTKITGAGLVHL	-0.0641
HMKSVLDDVAGLGPVRKKALLKAMGGFTRLRAASLDDILAVRAVPEEVAREVFAVLAQYNSVRNNDISE	-1.08
HMKSVTAPLPGTVTQILVKVGDAVKAGDTVLMLEAMKMENSITAEAAGTVKAIRVEKGAQVQGGDVLIEM	0.157
HMKTAAKVLGESGGKPVTVQSGRYGPYVQLGTIRATLPKDLDQEAVTLDKALELIDAKAERSGK	0.00631
HMKTDFEIDITVKASSLRVVASPGGDELVGTVTRGDRVTQLATPKDGWILIKMTDGRLGYVPESLLLFP	-1.87
HMKTEIGQAMRKLRKAKKMTQDTLAEKLGVAPANISRYEKGQQGIEVDKLPTLADALGVSVPEFFAIASG	0.0367
HMKTELAYDFHSRIRDARIREGLSQVDLAKRMNEKIAVIQKAENGIRPTDSLIAKFSKALSVELYVE	-2.12
HMKTGIIYGVNGPVIYLKGDTGFKISEMVYVGPEKLVGEVIGLKKHMTTVQVFEETTGLKPGETVIGTGDA	-0.378
HMKTGTVQDFIAKYGMSSKSPSSWFNSLTQIQKAEAKALKAQSGLTWNEWYEKNIYNGDGSNL	-0.0584
HMKTKHISIAEGMSLYTRDRSPFYWGYLNIEGVIHKKSLKTDVVDEAIKLLSIWKNELLNSITK	-1.19
HMKTKKYKGVYKDSKGKIYFQIELGVDPITGKRIQKKGRKNQQGLPFNSFKEAYEEILRLKHEFVNSTIN	-3.35
HMKTKTAPPDSIPPAWLKESATLRPDLNQAQIKASAEVFLDHHRAKGTTLADWRPAWRNWIRRERA	0.0178
HMKTLDAFFDQARDAYKKLKKDGDIDNLKVLRNQLQTVRETQGDAVRKKSKEEYRRLVDIIDDIDGLLAAF	-0.123
HMKTLSKEDIGFLSDEAVGEMRKAVANGEMLELRALIDQVGEKNPIVAEKLLTLVKQYDYENLNRVLE	0.102
HMKTPAPRETILSLFRQTPDGFVSGERISDELGVSRTAVWKHIRNLRQAGYQIEAIPSRGYQLQQS	-0.556
HMKTQFGTIVKQLRERKGMDQKQLGEIVGVSDKTVSSWEINRTEPKMGIVQQLADYFGVSTDYLIKG	0.306
HMKTRQVTVRNGRIEIFDKRFSTERLVFTAANLPVLEREGEVFTAGIPDSRDFINLWARDGSFAGSVPRV	-1.96

Sequence	soluble fraction (log2)
HMKTTSYAKLLRFLRTERDLSQITVAKQLGLSRASYLALEHGSRELSLSEAVKVTTLYGIRIDDLIVNH	-3.35
HMKTTVEVSPIARPGAVASGSVKFGSGVTAEWMLDQYGRLGLDKPTGKPTEQDIKEFQIELQKAL	0.0637
HMKVDLSEEEKTILELLKKESPQELETIKAASTLSNKKWDKAIKGLRKHNLAKVNKTDDGLFVELE	0.234
HMKVDRLISIVLVLLDKNRISAQELADMFEVSLRTIYRDIDAIELAGIPIRSTSGVGGGFEIMPNY	-1.11
HMKVKGVYQLDNGYWGYRFTMLVNGKTVSQRRVKDESGNPFKTEKKAEKARLVAMAEEQTKANK	-2.22
HMKVMTNAELGRIIKEARIARRMTQSEVVGDFITRNMLSQIENGNAAPSMRTLQYLMDVLDIHINIE	-3.02
HMKVNIGDQVYNQMKDQIMSGVWVPGEKIPSENQLMEVFGVSRGTVRQAIQKLSAVGLLETRRGEGSYVGQ	-0.136
HMKVQLGMNTREVRGIMGKPFSEDTFVEGEKRVDVLHYKEAVRVKTQGFILTTSLRFENDSLTAI	-1.62
HMKVRVFIERSNDGYSAYMPDDNNLPFGLTGDGKTAQEAMQDFLLARDEMKEFFIEEGKEFPEVEFDFS	-0.828
HMKVSAEEQNILDALQAAGGYLPFHDKSNPEEIYEAFGISKKTFKMIIGSLYKQQKINLTQTGIQLII	0.303
HMKVSDPEAIKLIEQAQVKVIPFLDISEAADIQIALEELKNSEGTGQTDSAKVRLRNLLSPFSYL	0.577
HMKVSFEIEINGVTKSINSINEAKEAISELQDIMDNSTFGSEEFKNAATQIDKLQNKLVEALDK	0.93
HMKVSVDLSMFEDDQTADRNAAVAWVVDELGAGGVDRTILMQLQSTGWSAEQSRAILDLASAGR	-0.311
HMKVTGSVQKKKGYYYIVVRLPTKNGTQYEQKQKWFNTKLKATPRNKTAAQVILAEKLTEYGGIV	-3.04
HMKVWYAGINAQRVGPMTLGAMEQQIRYGRVLFSTLIWKSPMPQWVPAGDVPELRRLLDEHMLNQMP	-0.841
HMKYFDRDLINYIQKTLAGKKIDFHEKIVPLIIELAGSDIRRVDEIIDMAEYSGKGMHVSEEMIRELAGDV	-0.715
HMKYKTKRDMILALMKKEILSGELKPRTRLLISEVASRYEVSEIPVREAFQVLIQEDLVRSTGAGFEVT	-2.36
HMKYPVYLQLADLIERKINKNEYPLGSKIPSERELIDAFGISRMTVRKAIEVLIEKGLLTRQHGKGTYVSQ	-2.26
HMKYSNDFDKVSYSLGLSIASNLISSGVKTLNAEAFNDGLATVFEGRMPEINPDEANKILQNFFEGLQKE	-0.278
HMKYSQAMIAQIIKHFHLPNNTVVTGEDVDAILLRSVDGGDGIYGGDVVSIWKYYKKQNDIQEIVT	-0.764
HMLAEEDRRRAERPGLDGNAVMVHLGIGPGRHVGEALAFLLEVRRSEGDLAVAELKSRIDAWWADR	-2.17
HMLAERKERDKAELKELILDAAKKILLKNGQEGLSIRKIATTVEYSPATIYLYFKDKDEILHELMEMG	0.123
HMLAHSEFGARLRETRKRLGLSQSELGGDRYSGSYISHLESGRRAASAEVIEFLAGRLGVEVEELGM	-0.406
HMLAIELDDKPGSLLRALEIFAKRNLNIEYMYAFTEKRGDKAVMIFKFSDIETAKKSLLEEGFN	-2.11

Sequence	soluble fraction (log2)
HMLAKNDSGLNNHTFNAIRDALLEALADGPAEAKKLTENISFPSDKIITVIRFLADHDDRFSLEDGILSLT	-0.738
HMLAKYEIIKQDIIQMIEEKKFKPGDKIYSEGELKKIYNVSSTTVVRALQDLVLSGYLIRKQGEGTYVRK	-3.2
HMLASDYEEELSVLIKMSHKIAAGDDSLMDDFNDRVTMFESSYPINKATKDLTPVLERVNKFQT	-0.908
HMLDDDAGMIQAILRKAPGHYLPLHDKSDPASIQAQLGISKAQFKRAVGTLMKQGLIRQVKGDGLYLTQ	-0.271
HMLDDESLHFFYKKDGWEYWMKTTTENNYPIQLRKKIGDEKVQEYWNGDKEKKKIGASYFGV	-0.465
HMLDFLVSKYESELLADLLWSLGVVAVEEREATGDLVTLRTSLGDDHSFTRELVQEKFPDVIVSTAL	-1.74
HMLDIVVGSTGYALGEITDHSGTVRVNGDTWTARLVDAAGPVEDGDRVEVYAVEGTTLLVYPS	-0.619
HMLDKEDNANAGKTLLERELSRAHLSDVEHRELAQRLHLASEQELYIKIGSGDLSIIQALNRAKEFKDT	-0.0269
HMLDKRSHAKKVLDAIEAVILGRATNDQLAYTINGRSLQKTPLPDLLRLRSQYQAEYQRELRAERIRKG	-0.697
HMLDLPVKTINGKQYYYYTVKKGDTVYSLITRFGITRSDLVESNPAAADVLKTGDTLYFAVDKFG	-1.19
HMLDLYYDSEDKLLIDMGTGEVIRSFADDKRSLVFDAQAKILFDEDSGDIVYSSYFDKLITDKLASKS	-0.396
HMLDPIQEGKKMLNSRLSGFGITPNTRLMNKLLAAYNISSREEFYGRIGAGIEDLSTLREVLLKGT	-0.973
HMLDQSYYETANEIISRYPLEEKSLIPIIQDIQATYRYLPPDLLDYVAKKIGITETKAYSVASFYENFSF	-0.721
HMLDRNKLNELDAYIESFEDKPSHLIMILHRAQGLFGYLPKELQIYVAEKTGVPAAKVYGVVTFYSFFTMK	-3.42
HMLEDDTVNTAEGIKIGDSFAAVTKAYGTDYVAAGNTYAYSKDKMTLTFVMNNDKVSTISYSLLTS	0.136
HMLEDYFKEEEYTEVLKIPKEYIKGFQYYLIEDAEFVNALRAKNKTMTLFLAKKLASDYIEIIRREQ	-2.39
HMLEIGRYNTLTVLRKVDFGYYLDGLDYGDILMPAKYAATELEAGDEVDVFIYLDSSEKLIATTETPIAQ	-4.06
HMLEIQENFQNILKRMELSLSPLERRVLALYLSGYERSEIPEKTGIPLKTFDNALHRVRNKMK	-2.36
HMLEKDIGKAITILRKSYQLSISAFSMRTGYSRVHISEVESGKRKATDELISVIRNVFHLDSNWPF	-1.52
HMLELDRTNLLGVFGSKSNPYALIMLSNGEMLKLSIGDQFLGWRVYAIDQTTVHVQNGKNQEILRIP	-1.36
HMLELLSMEDIQRTRVGDLIATVRQVDRQHALVLDRDPETGKPAVRGIFSLSQISLRLGLNI	-2.17
HMLEPGIAVLKTLMSQYRLGVADLPELGSKSNVSKLLNAVEGKKLTRQHIEALSKRFAVSPALF	-0.148
